# Laboratory results published in the nanobody polyreactivity screen of Harvey et al. (2022).
# Experiment: yeast display, Sf9 membrane polyspecificity reagent, FACS + sequencing; frameworks hold sequencing errors
# In short: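 Polyreactivity labels are assigned by the sorting gate from which each nanobody was recovered. The gates were low and high (top ~1%), set on anti-HA fluorescence for expression and streptavidin fluorescence for reagent binding. Before sorting, galactose-induced (36–48 hours) yeast display cells were stained for 1 hour at 4 °C with 10% biotinylated, detergent-solubilized Sf9 membrane reagent.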
row,Sequence,polyreactivity (PSR sort gate)
1,QVQLVESGGGLVQARGSLRLSCAASGSTFEANSMGWYRQAPGKERELVAVLTWTGGSTYYADSVKGRFTISRDNAKNTVNLHMISLNPEDTAVEYCAADGVLPGRFFWPAHEYDYWGQGTQVTVSS,low polyreactivity
2,QVQLVESGGGLVQAGGSLRLSCAASGRIFHGYVMGWYRQAPGKERELVAAINQSGTSTYYADSVKGRFTISRDNAKNTVYLQMNSLKPEDTAVYYCAKDWAYRRHWVGFYYWGQGTQVTVSS,low polyreactivity
3,QVQLVESGGGLVQAGGSLRLSCAASGRIFDSYAMGWYRQAPGKERELVAVISNNDGTTYYADSVKGRFTISRDNAKKTFYLQMNSLKPEDTAVYYCAAEEPLFGYLWYVVTYAGFYDYWGQGTQVTVSS,low polyreactivity
4,QLQLVESGGGLVQAGGSLRLSCAASGYIFFKYAMGWYRQAPWKERELVASITSRGGTTYYADSVKGRFTISRDNAKNTVYLQMNSLKPEDTAVYYCAALRRSSFGYWGQGTQVTVSS,high polyreactivity
5,QVQLVESGGGLVQAGGSLRLSCAASGSIFDGYAMGWYIQAPGKDRELVAAISGSGGITYYADSVKGRFTISRDNAKNTVYLPMNSLKPEDTAVYYCAADYSWYAGYGYWGQGTQVTVSS,low polyreactivity
6,QVQLVESGGGLVQAGGSLRLSCAASGSIFYYYTMGWYRQAPGKERELVAAITWSGGRTYYADSVKGRFTISRDNAKNTVYLQMNSLKPEDTAVYYCNVDPYYGGIGDYWGQGTQVTVSS,high polyreactivity
7,QVQLVESGGGLVQAGGSLRLSCAASGSTFANYAMGWYRQAPGKERELVAAISRGGNTYYADSVKGRFTISRDNAKNTVYLQMNSLKPEDTAVYYCAARAPRFSRSSQPGDYWGQGTQVTVSS,high polyreactivity
8,QVQLVESGGGLVQAGGSLRLSCAASGFTFSSYTMGWYRQAPGKERELVAAISRRTGRTYYADSVKGRFTISRDNAKNTVYLQMNSLKPEDTEVYYCAARPYWSYRRYDYWGQGTQVTVSS,high polyreactivity
9,QVQRVESGGGIVQAGGSLRLSSAASGSIYLYHAMGWYRPERGKERQLVAAIRSGGITYYADSVKGRFTISRDNAKNTVYLQMYSLKPEDTADYYCAAKFYWKGTPKKYYYWGQGTQETVSS,high polyreactivity
10,QVQLVESGGGLVQAGGSLRLSCAASGFTFRYNAMGWYRQAPGKERELVAAITNGGSTYADSVKGRFTISRDNAKNTVYLQMNSLKPEDTAVYYCAADYFVLTYYLWSYSPYKSFYYWGQGTQVTLSS,low polyreactivity
11,QVQLVESGGGLVQAGGSLRLSCAASGRTFKFYAMGWYRQAPGKERELVATITSGGSTYYADSVKGRFTISRDNAKNTVYLQMNSLIPEDTAVSYCNAAKTYPDVYEYDYWGQGTQVTVSS,high polyreactivity
12,QVQLVESGGGLVQAGGSLRLSCAASGSIFTPYAMGWYRQAPAKERELVAANTSSGGSTNYPDSVKGRFTISRDKAKSTVYLQMNSLKPEDTAVYYCAADQDLGYPLFDYWGQRTQVTVSS,low polyreactivity
13,QVQLVETGGGLVQAGGSLRLSCAASFRSNTMGGYRQAPRKERELVAAISGSGSRTYYADSVKGRFTISRDNAKKTVYLQMNSLKPEDTAVYYCAALSYRNSEVGTSRGDYWGQGTQVTVSS,high polyreactivity
14,QVQLVESGGGLVQAGGSLRLSCAASGRIFHVYVMGWYRPAPGKERELVAAITWRGGRTYYADSVKGRFTISRDNAKNTVYLQMNSLKPEDTAVYYCKAVAYWYDYQYDYWGQGTQVTVSS,high polyreactivity
15,QVQLQESGGGLVHAGGILRLSCAASGTISFINMKGWYGQAPGRERELVASINFGANTHYADSVKGRFTIRRDNAKNTVYLQMNSLKPEDTAVSYCAARKVRFGVDYWGQGTQVTVSS,high polyreactivity
16,QDQLVESGGGLVQAGGSLRLSCAASGFTFVRYAMVWYRQAPGKERELVAAISSSGGSTYYADSVKGRFTISRDNAKNTVYLQMNSLKPEDTAVYYCADGPFYRFTDGRYKSLDYCGQGTQVTVSS,high polyreactivity
17,QVQLVESGGGLVQAGGSLRLSCAATGRIFWVYAMGWYRQAPGKERELVAAINTSVGRTHYADSVKGRFTISRDNAKNTVYLQMNSLKPEDTAVYYCAADVKRYGWEYGYWGQGTQVTVSS,low polyreactivity
18,QVQLVESGGGLVQAGGSLRLSCAASGSTRYYAMGWYRQAPGKERELVATISSRSRTYYADSVKGRFTISRDNAKNTVYLQMNSLKPDDPAVYYCAARRRRFYYQYYRYDYWGQGTQVTVSS,high polyreactivity
19,QVQLVESGGGLVQAGGSLRLSCAASGRIFRVYTMGWYRQAPGKERELVAGITWDGGGTYYADSVKGRFTISRDNAKNTVYLQMNSLKPEDTAVYYCNAVVQGFYLAWLYTLDSWGQGTQVTVSS,low polyreactivity
20,QVQLVESGGGLVQAGGSLRLSCAASGSIFEPYVMGWYRQAPGKERELVAAIRQTGGSTYYADSVKGRFTISRDNAKNTVFLQMNSLKPEDTAVYYCNAKWYGWQRGTVKYDYWGQGTQVTVSS,low polyreactivity
21,QVQLVESGGGLVQAGGSLRLSCAASGITFGGYAMGWYRQAPGKERELVASIRSGSSTNYADSVKGRFTISRDNAKNTVYLQMNSLKPEDTAVYYCAARNFRNRYGYWGQGTQVTVSS,high polyreactivity
22,QVQLVESGGGLVQAGGSLRLSCAASGSIFRWYAMGWYRQAPGKERELVAAISTSGGNTYYADSVKGRFTISRDIAKITVYLQMKSLKPEDTAVYYCNALWYRSLSYRYDYWGQGTQVTVSS,high polyreactivity

row,Sequence,polyreactivity (PSR sort gate)
1,QVQLVESGGGLVQAGGSLRLSCAASGSIFYTNAMGWYRQAPGKERELFASISRRGGSTYYADSVKGRFTISRDNAKNTVYLQMNSLKPEDTAVYYFATDGYTPYRWLWWLMDYWGQGTQVTVSS,high polyreactivity
2,LVQLVQSGGGLVQAGGTLRISSAASGSTLDWYAMGWYRQAPGKERELVAAITSGGSTYYADSVKGRFTISRDNAKNTVYLQMNSLKPEDTAVYYCAAEYYTWYYDIYDYWGQGTQVTVSS,high polyreactivity
3,QVQLVESGGGLVQAGGSLRLSCAASGRTFTKYAKGWYRQAPGKERELVAAISNSGGSTFYADSVKGRFTISRDNAKNTVYLQMNSLKPEDTAVYYCAVDLGDTQYVPFDYWGQGTQVTVSS,low polyreactivity
4,QVQLVESGGGLVQAGGSLRLSCAASGSTFWYYAMGWYRQAPGKERELVASITYSGGSTYYADSVKGRFTISRDNAKNTVYLQMNSLKPEDSAVYYCAAEGYYSNYHYWGQGTQVTVSS,low polyreactivity
5,QVQLVESGGGLVQAGGSLRLSCAASGLTFGFYAMGWYRQAPGKERELVAGISNGGSTNYADSVKGRFTISRDNAKNTVYLQMNSLKPEDTAVYYCAARLYARRLYDYWGQRTQVTVSS,low polyreactivity
6,QVQLVESGGGIVQAGGSLRLSCAASGYSFFINAMGWSRQAPGKERELVAAIDLRGGSTYYADSVKGRFTISRDNAKNTVYLQMNSLKPEDTAVYYCNARARRYGGRYYYWGQGTQVTVSS,high polyreactivity
7,QVQLVESGGRLVQGRGSLRLSCAASGRTFHIYDIGWYRQAPGKERELVAAIRGRSGSTYYADSVKGRFTISRDNAKNNDYLQMNSLTPEDNAVYYCAAENLGRFVASEYDYWGQGTQVTVSS,high polyreactivity
8,QVQLVESGGGLVQAGGSLRLSCAASGRIFYANAMGWYRQAPGKERELVAGISSGGITNYADSVKGRFTISRDNAKNTVYLQMNSLKPEDTAVYYCAVESWNRWRNRNDYWGQGSQVTVSS,low polyreactivity
9,QVQLVESGGGLVQAGGSLRLSCAASGRIFGINARGWYRPAPGKERELVAAINWSGGSTYYADSVKGRFTISRDNAKNTVYLHMNSLKPEDTAVYYCAADFYRRYYRYGYWGQGTQVTVSS,high polyreactivity
10,QVQLVESGGGLVQAGGSLRLSCAASGSTFWYYAMGWYRQAPGKERELVADITISGGSTYYSDSVKGRFTISRDNAKNTVYLQMNSLKPEDTAVYYCATDDTHRVGWFDYWGQGTQVTVSS,low polyreactivity
11,QVQLVESGGGLVQAGGSLRISCAPSGSTFYKYTMGWYRQAPGKERELVAAISGSGTTTYYADSVKGRFTISRDNAKNTVYLRMNSLKPEDTAVYYCNTARGYDYGGLDYWGQGSQVTVSS,high polyreactivity
12,QVQLVESGGGLVQAGGSLRLSCAASGRIFDYYAMGWYRQAPGKERELVAAITSGGTTTYYADSVKGRFTNSRDNAKNTVYLQLNSLKPEDTAVYFCAKYPYHIYHTDGDYWGQGTQVTVSS,low polyreactivity
13,QVQLVESGGGLVQAGGSLRLSCAASGGIFHYYAMGWYRQAPGKERELVAAISWNTGSTYYADSVKGRFTISRDNAKNTVYLQMNSLKPVDTAVYYCAASYRSPWLRYDYWGQGTQVTVSS,high polyreactivity
14,QVQLVESGGGLVQAGGSLRLSCAASGRISIKNAMGWYRQAPGKERELVAAIRWSADSTYYADSVKGRFTISRDNAKNTVYLQMNSLIPEDTAVYYCAATGRLRYYWGQGTQVTVSS,high polyreactivity
15,QVQLVESGGGLVQAGGSLRLSCAASGFTFTRNAMGWYRQAPGKERELVAAISSSGTSTYYADSVKGRFTISRDNAKNTVYLQMNSLKPEDTAVYYCAKDFYRRYYSWGLGTQVTVSS,high polyreactivity
16,QVQLVESGGGLVQAGGSLRLSCAASGRTFVWNAMGWYRQAPGTERELVAAITSGGSTNYADSVKGRFTISRDNAKNTVYLQMNSLIPEDTAVYYCGAVWQYSPRMDYWGQGTQVTVSS,low polyreactivity
17,QVQLVESGGGLVHAGGSLRLSCAASGSIFGYYTMGWYRQAPGKERELDAAITSGGSTNYADSVKGRFTISRDNAKNTVYLEMNSLKPEDTAVYYCAKVSYYPWRYDDWGQGTKVTVSS,low polyreactivity
18,QVQLVESGGGLVQAGGSLRLSCAASGITFLHYALGWYRQAPGKERELDAAISVRGGITYYADSVKGRFTISRDNAKNTVYLQMHSLKPEDTAVFYCAADRPKFYNSIYDYWGQGTQVTVSS,low polyreactivity
19,QVQLQESGGGLVLAGGSLRLSCAASGSITAQAYMGWDRQAPGKEREHVAGINYGDNTNYADSVKGRFTISRDNEHRVSADEQPETGRYRGVLLRGFLEIFYYYIFWGQGTQVTVSS,high polyreactivity
20,QVQLVESGGGLVQAGGSLRLSCAASGRTFGYNAMGWYRQAPGKESELVAVISRGSRTYYADSVKGRFTISRDNAKNTVYLQMNSLKPEDTAVYYCAADYEYSGYGYWGQGTQVTVSS,high polyreactivity
21,QVQLVESGGGLVQAGGSLRLSCAASGRIFKPYVMGWYRQAPGKERELVASITWNGGRTYYADSVKGRFTISRDNAKNTVYLQMNSLKPEDTAVYYCAADYWTTADPRNIIKYDYWGQGTQVTVSS,high polyreactivity
